Assay results from the supplement of paper PMC9112550, “Optimization of the antimicrobial peptide Bac7 by deep mutational scanning” (BMC Biology, 2022).

Test system: Escherichia coli TOP10
Assay: shrunken log2 fold change of peptide-encoding DNA abundance (4.5 h post-induction vs induction); higher = less antimicrobial activity (less host growth inhibition)
Details: time post-induction: 4.5 h; library: site-saturation at positions 5, 18, 19, 20
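Note: peptides expressed intracellularly from a pBAD plasmid library in pooled LB shake-flask culture, induced with 0.3% L-arabinose, DNA abundance read by NGS, three biological replicates, DESeq2 with apeglm shrinkage.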

Sequence	shrunken log2 fold change
RRIRWRPPRLPRPRPRPKGGPRP	0.536
RRIRRRPPRLPRPRPRPYALPRP	-0.5
RRIRWRPPRLPRPRPRPIVFPRP	-0.125
RRIRPRPPRLPRPRPRPEPKPRP	2.44
RRIRNRPPRLPRPRPRPEHYPRP	-0.38
RRIRNRPPRLPRPRPRPRIVPRP	-0.191
RRIRCRPPRLPRPRPRPGCLPRP	0.115
RRIRFRPPRLPRPRPRPMEIPRP	-0.298
RRIRKRPPRLPRPRPRPVLWPRP	1.78
RRIRCRPPRLPRPRPRPCHSPRP	-1.91
RRIRWRPPRLPRPRPRPDFRPRP	0.169
RRIRERPPRLPRPRPRPHERPRP	-0.00965
RRIRGRPPRLPRPRPRPYHTPRP	-0.779
RRIRARPPRLPRPRPRPETDPRP	0.764
RRIRCRPPRLPRPRPRPWLWPRP	0.0682
RRIRRRPPRLPRPRPRPVTFPRP	0.00522
RRIRNRPPRLPRPRPRPNSFPRP	-0.00469
RRIRNRPPRLPRPRPRPHVNPRP	-0.237
RRIRCRPPRLPRPRPRPQIQPRP	-0.288
RRIRNRPPRLPRPRPRPAMIPRP	-0.254
RRIRVRPPRLPRPRPRPGTKPRP	0.193
RRIRVRPPRLPRPRPRPMNRPRP	-0.182
RRIRGRPPRLPRPRPRPCPWPRP	-0.149
RRIRDRPPRLPRPRPRPLMIPRP	0.072
RRIRQRPPRLPRPRPRPVTMPRP	-0.0817

Sequence	shrunken log2 fold change
RRIRRRPPRLPRPRPRPEKHPRP	0.121
RRIRMRPPRLPRPRPRPHLEPRP	0.0983
RRIRPRPPRLPRPRPRPLLAPRP	1.42
RRIRRRPPRLPRPRPRPFRGPRP	-0.105
RRIRFRPPRLPRPRPRPSLRPRP	-0.262
RRIRARPPRLPRPRPRPQDLPRP	-0.0381
RRIRARPPRLPRPRPRPGTDPRP	0.565
RRIRMRPPRLPRPRPRPWRNPRP	-0.00207
RRIRWRPPRLPRPRPRPGEWPRP	0.162
RRIRSRPPRLPRPRPRPKRWPRP	0.71
RRIRIRPPRLPRPRPRPAWFPRP	-0.00823
RRIRFRPPRLPRPRPRPIEMPRP	-0.245
RRIRKRPPRLPRPRPRPEFWPRP	0.807
RRIRTRPPRLPRPRPRPYPHPRP	0.0321
RRIRQRPPRLPRPRPRPIKWPRP	0.00957
RRIRYRPPRLPRPRPRPGWKPRP	0.00711
RRIRMRPPRLPRPRPRPQFRPRP	-0.235
RRIRMRPPRLPRPRPRPDCYPRP	-0.15
RRIRMRPPRLPRPRPRPKKAPRP	0.0459
RRIRPRPPRLPRPRPRPQHPPRP	0.0328
RRIRMRPPRLPRPRPRPNHGPRP	-0.00135
RRIRERPPRLPRPRPRPCLCPRP	-0.134
RRIRIRPPRLPRPRPRPLMHPRP	-0.384
RRIRKRPPRLPRPRPRPDCFPRP	0.315
RRIRGRPPRLPRPRPRPGCTPRP	0.885

Sequence	shrunken log2 fold change
RRIRTRPPRLPRPRPRPWIFPRP	-0.0415
RRIRSRPPRLPRPRPRPKGRPRP	0.0764
RRIRWRPPRLPRPRPRPTQVPRP	0.477
RRIRKRPPRLPRPRPRPGRFPRP	0.227
RRIRNRPPRLPRPRPRPIFHPRP	-0.358
RRIRARPPRLPRPRPRPASVPRP	0.261
RRIRDRPPRLPRPRPRPHRKPRP	0.00895
RRIRPRPPRLPRPRPRPTVTPRP	-0.0401
RRIRWRPPRLPRPRPRPKHPPRP	0.442
RRIRLRPPRLPRPRPRPEDMPRP	0.0524
RRIRNRPPRLPRPRPRPFNVPRP	0.109
RRIRFRPPRLPRPRPRPIYQPRP	-0.21
RRIRHRPPRLPRPRPRPWYFPRP	-0.813
RRIRYRPPRLPRPRPRPIDLPRP	-0.0513
RRIRVRPPRLPRPRPRPCNVPRP	-0.452
RRIRNRPPRLPRPRPRPVDPPRP	0.0584
RRIRERPPRLPRPRPRPPPMPRP	0.271
RRIRFRPPRLPRPRPRPDHSPRP	-0.0664
RRIRLRPPRLPRPRPRPNWRPRP	0.292
RRIRVRPPRLPRPRPRPYWNPRP	-0.574
RRIRERPPRLPRPRPRPYHRPRP	0.00148
RRIRGRPPRLPRPRPRPFKCPRP	-0.307
RRIRARPPRLPRPRPRPICMPRP	0.055
RRIRGRPPRLPRPRPRPLKCPRP	0.303
RRIRLRPPRLPRPRPRPIHRPRP	-0.163

Sequence	shrunken log2 fold change
RRIRFRPPRLPRPRPRPTLYPRP	-0.189
RRIRYRPPRLPRPRPRPKVMPRP	-0.296
RRIRIRPPRLPRPRPRPNQGPRP	0.0325
RRIRCRPPRLPRPRPRPWWSPRP	0.119
RRIRARPPRLPRPRPRPEAWPRP	-0.00193
RRIRDRPPRLPRPRPRPMAVPRP	0.417
RRIRMRPPRLPRPRPRPGCHPRP	0.0532
RRIRWRPPRLPRPRPRPWGDPRP	0.0345
RRIRQRPPRLPRPRPRPGNVPRP	0.0829
RRIRWRPPRLPRPRPRPKGLPRP	-0.0645
RRIRQRPPRLPRPRPRPQFDPRP	-0.178
RRIRMRPPRLPRPRPRPQADPRP	0.639
RRIRKRPPRLPRPRPRPGDPPRP	1.21
RRIRDRPPRLPRPRPRPHEKPRP	-0.0396
RRIRTRPPRLPRPRPRPGDVPRP	0.0978
RRIRVRPPRLPRPRPRPIGLPRP	-0.0479
RRIRMRPPRLPRPRPRPEDTPRP	1.94
RRIRLRPPRLPRPRPRPHLTPRP	-0.241
RRIRERPPRLPRPRPRPMYNPRP	-0.301
RRIRCRPPRLPRPRPRPWEPPRP	-0.00185
RRIRPRPPRLPRPRPRPIWCPRP	0.0267
RRIRPRPPRLPRPRPRPAFQPRP	0.156
RRIRDRPPRLPRPRPRPAWNPRP	0.428
RRIRIRPPRLPRPRPRPMNYPRP	-0.0706
RRIRPRPPRLPRPRPRPPRSPRP	0.518

Sequence	shrunken log2 fold change
RRIRCRPPRLPRPRPRPCEYPRP	-0.163
RRIRPRPPRLPRPRPRPWSIPRP	-0.0637
RRIRCRPPRLPRPRPRPYQTPRP	-0.0384
RRIRNRPPRLPRPRPRPHWHPRP	-0.65
RRIRTRPPRLPRPRPRPVTNPRP	-0.0277
RRIRKRPPRLPRPRPRPFTPPRP	0.0993
RRIRRRPPRLPRPRPRPKRSPRP	0.11
RRIRPRPPRLPRPRPRPHIDPRP	-0.215
RRIRRRPPRLPRPRPRPLMSPRP	-0.246
RRIRLRPPRLPRPRPRPFMIPRP	-0.186
RRIRLRPPRLPRPRPRPCAMPRP	0.00887
RRIRQRPPRLPRPRPRPSFMPRP	-0.509
RRIRSRPPRLPRPRPRPSGQPRP	-0.0423
RRIRMRPPRLPRPRPRPKWWPRP	0.755
RRIRSRPPRLPRPRPRPTICPRP	-0.126
RRIRDRPPRLPRPRPRPDEAPRP	0.12
RRIRNRPPRLPRPRPRPINSPRP	-0.208
RRIRWRPPRLPRPRPRPQAHPRP	0.00175
RRIRWRPPRLPRPRPRPKFHPRP	-0.249
RRIRRRPPRLPRPRPRPHLFPRP	0.0328
RRIRLRPPRLPRPRPRPFWQPRP	-0.0702
RRIRYRPPRLPRPRPRPGQLPRP	-0.284
RRIRYRPPRLPRPRPRPFLEPRP	-0.775
RRIRQRPPRLPRPRPRPSKLPRP	-0.401
RRIRGRPPRLPRPRPRPVMCPRP	0.522
